Laboratory results published in US9808434B2, “Compound for treating cancer and diabetes” (CITY OF HOPE, priority 2011, dated 2017).

Substrate: O=C(Nc1cc(Cl)cc(Cl)c1)Nc1cc(Cl)cc(Cl)c1
Assay: Kinetics of GST-P using COH-SR4 as a substrate
Type: biochemical
Settings: other: COH-SR4 as substrate, 1 mM GSH, pH 6.5, 340 nm, 37.0 °C
Method: The cDNA of GSTP was cloned into the prokaryotic expression plasmid vector, pET30a(+) (Novagen), creating the GSTP-pET30a(+) plasmid free of extraneous sequences. Bam H1 and Xhol restriction sites were used for cloning. This plasmid was transfected into E. coli BL21 (DE3). Protein was expressed in E. coli BL21 (DE3) grown at 37° C. Once the OD600 reached 0.6 protein was induced with 0.4 mM IPTG.
All purification steps were carried out at 4° C. unless otherwise specified. All buffers were prepared fresh and filter sterilized. Briefly, bacteria was lysed in 10 mM K-PO4 buffer pH 7.0 containing 1.4 mM β-mercaptoethanol (Buffer A) and 100 μM PMSF followed by sonication at 50 rpm for 3 times at 30 sec each. […] The supernatant was mixed with GSH-affinity resin for coupling for overnight at 4° C. The unbound proteins were washed with Buffer B until OD at 280 nm is zero. Bound protein (purified GSTP) was eluted with 50 mM Tris-HCl, pH 9.6 containing 1.4 mM β-mercaptoethanol. Elutes protein was dialyzed against Buffer A for overnight and the GSTP protein concentration was checked by Bradford's assay.
Reaction systems were prepared by mixing COH-SR4 (50 μL, various final concentrations of 0˜10 μM), 100 μL of 10 mM GSH (GSH solution in GST assay buffer, pH 6.5), 10 μL of GSTP enzyme (0.52 mg/mL) and having 840 μL GST assay buffer (100 mM K-PO4 buffer, pH 6.5). […]

B1: GST-P (Homo sapiens) (protein)
chain: MPPYTVVYFPVRGRCAALRMLLADQGQSWKEEVVTVETWQEGSLKASCLYGQLPKFQDGDLTLYQSNTILRHLGRTLGLYGKDQQEAALVDMVNDGVEDLRCKYISLIYTNYEAGKDDYVKALPGQLKPFETLLSQNQGGKTFIVGDQISFADYNLLDLLLIHEVLAPGCLDAFPLLSAYVGRLSARPKLKAFLASPEYVNLPINGNGKQ
notes: made in house; host or cells: E. coli BL21 (DE3)
- Km: 40 µM
